One assay has as its target SARS-CoV N protein (SARS-CoV (strain ; reference …, UniProt P59595). Description: SPR. (In general: SPR reads the build-up and loss of mass on a sensor chip optically.)
Assay [1] addresses SARS-CoV-2 nucleocapsid (N) protein, N-FL (SARS-CoV-2 (reference sequence; isolate …, UniProt P0DTC9). Description: SPR.

B1: mAb nCoV396 (antibody, V domains shown)
VH: QVQLVESGGGVVQPGRSLRLSCAASGFTFSSYIMHWVRQAPGKGLEWVAVISYDGSNEAYADSVKGRFTISRDNSKNTLYLQMSSLRAEDTGVYYCARETGDYSSSWYDSWGRGTLVTVSS
VL: QLVLTQSPSASASLGASVKLTCTLSSGHSNYAIAWHQQQPEKGPRYLMKVNSDGSHTKGDGIPDRFSGSSSGAERYLTISSLQSEDEADYYCQTWGTGIQVFGGGTKLTVL
As for B1, the figures for the dissociation constant (Kd) (in the assay with SARS-CoV N protein; in assay [1]) were 7.4 nM and 1.02 nM, respectively.

In general, Kd refers to the equilibrium constant for the complex coming apart. A higher Kd goes with a looser complex.

These data come from publication doi:10.1101/2020.09.10.292318 (bioRxiv, 2020).
